Molecular target: Activated human plasma kallikrein (Enzyme Research Laboratories) (human, UniProt P03952 20-638)
Experiment: cell-based or functional assay

Chain of Activated human plasma kallikrein (Enzyme Research Laboratories) (P03952 20-638 limits assumed): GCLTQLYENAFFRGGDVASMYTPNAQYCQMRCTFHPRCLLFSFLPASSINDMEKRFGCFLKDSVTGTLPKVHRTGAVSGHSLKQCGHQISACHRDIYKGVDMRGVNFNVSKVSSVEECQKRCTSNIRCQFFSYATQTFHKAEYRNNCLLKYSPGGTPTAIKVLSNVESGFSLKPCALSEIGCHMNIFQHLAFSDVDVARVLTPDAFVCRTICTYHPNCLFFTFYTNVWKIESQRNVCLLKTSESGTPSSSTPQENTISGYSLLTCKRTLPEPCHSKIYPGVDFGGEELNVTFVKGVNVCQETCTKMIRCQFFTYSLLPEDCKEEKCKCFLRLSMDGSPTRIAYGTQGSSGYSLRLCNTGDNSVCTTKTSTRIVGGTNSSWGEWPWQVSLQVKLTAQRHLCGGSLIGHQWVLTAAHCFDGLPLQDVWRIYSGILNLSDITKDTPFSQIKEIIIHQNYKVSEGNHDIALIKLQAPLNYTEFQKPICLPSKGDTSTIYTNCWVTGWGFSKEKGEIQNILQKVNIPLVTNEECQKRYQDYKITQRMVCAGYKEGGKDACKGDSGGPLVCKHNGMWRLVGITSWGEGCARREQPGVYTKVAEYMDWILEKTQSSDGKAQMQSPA

B1: Lanadelumab (full length anti-pKal antibody) (antibody, IgG1, V domains shown)
VH: EVQLLESGGGLVQPGGSLRLSCAASGFTFSHYIMMWVRQAPGKGLEWVSGIYSSGGITVYADSVKGRFTISRDNSKNTLYLQMNSLRAEDTAVYYCAYRRIGVPRRDEFDIWGQGTMVTVSS
VL: DIQMTQSPSTLSASVGDRVTITCRASQSISSWLAWYQQKPGKAPKLLIYKASTLESGVPSRFSGSGSGTEFTLTISSLQPDDFATYYCQQYNTYWTFGQGTKVEIK
IC50 (read off the curve), 6.25 nM pKal: ~2 nM
IC50 (read off the curve), 12.5 nM pKal: ~4 nM

— US20250326861A1 (REGENXBIO, published 2025)
